± gives the uncertainty stated by the source.
B1: Receptor-interacting serine/threonine-protein kinase 2, residues 438 to 518; numbered along this chain, O43353 (parent)
chain: QWIQSKREDIVNQMTEACLNQSLDALLSRDLIMKEDYELVSTKPTRTSKVRQLLDTTDIQGEEFAKVIVQKLKDNKQMGLQ

Variants of: B1
Test: abundance fitness (aPCA) (normalised: wild type 0, dead -1); higher = more abundant; growth selection in yeast, the domain comes from the species named
Settings: Homo sapiens

Row | Variant | abundance fitness
1 | K49T | -0.761 ± 0.22
2 | K49Y | -0.625 ± 0.46
3 | K49V | -0.784 ± 0.22
4 | K49S | -0.58 ± 0.12
5 | K49I | -0.564 ± 0.29
6 | S41Q | 0.139 ± 0.076
7 | S41R | 0.046 ± 0.046
8 | S41T | -0.004 ± 0.079
9 | S41A | -0.007 ± 0.064
10 | S41N | 0.094 ± 0.099
11 | S41L | 0.069 ± 0.054
12 | Q70Y | -0.776 ± 0.39
13 | Q70V | -0.714 ± 0.094
14 | Q70D | -0.206 ± 0.3
15 | Q70P | -0.567 ± 0.079
16 | Q70G | -0.144 ± 0.065
17 | Q70I | -0.614 ± 0.42
18 | T15A | -0.645 ± 0.11
19 | T15P | -0.492 ± 0.08
20 | T15Q | -0.126 ± 0.14
21 | T15K | -0.736 ± 0.24
22 | R7Y | -0.501 ± 0.17
23 | R7E | -0.42 ± 0.13
24 | E63R | -0.413 ± 0.062

Row | Variant | abundance fitness
25 | E63C | -0.527 ± 0.12
26 | E63I | -0.538 ± 0.14
27 | E63L | -0.684 ± 0.087
28 | Q77H | -0.137 ± 0.4
29 | S5E | 0.372 ± 0.27
30 | S5G | -0.177 ± 0.24
31 | S5T | -0.315 ± 0.14
32 | T45K | -0.999 ± 0.24
33 | T45H | -0.568 ± 0.22
34 | T45V | -0.56 ± 0.083
35 | T45Y | -1.11 ± 0.47
36 | G61A | -0.378 ± 0.1
37 | G61F | -0.604 ± 0.29
38 | D58L | -0.047 ± 0.071
39 | D58C | 0.035 ± 0.096
40 | D58V | 0.041 ± 0.069
41 | D58N | -0.141 ± 0.42
42 | D58Q | 0.041 ± 0.087
43 | D58Y | -0.259 ± 0.17
44 | D58H | 0.026 ± 0.11
45 | D58I | -0.007 ± 0.13
46 | Q13E | -0.027 ± 0.27
47 | A17Y | -0.137 ± 0.12
48 | A17H | -0.043 ± 0.11

Row | Variant | abundance fitness
49 | A17Q | 0.076 ± 0.088
50 | I59V | -0.171 ± 0.2
51 | V50H | -0.696 ± 0.21
52 | V50A | -0.842 ± 0.089
53 | V50D | -0.493 ± 0.22
54 | V50T | -0.505 ± 0.095
55 | V50N | -0.737 ± 0.2
56 | F64R | -0.475 ± 0.042
57 | F64M | -0.047 ± 0.11
58 | F64Q | -0.156 ± 0.12
59 | F64S | -0.212 ± 0.053
60 | P44N | -0.196 ± 0.29
61 | P44G | -0.314 ± 0.064
62 | K71A | 0.022 ± 0.074
63 | K71G | -0.281 ± 0.073
64 | K71P | -0.555 ± 0.087
65 | T47Y | -0.57 ± 0.25
66 | T47E | 0.201 ± 0.15
67 | T47S | -0.061 ± 0.091
68 | T47M | -0.431 ± 0.33
69 | T47K | -0.031 ± 0.14
70 | T47A | 0.121 ± 0.084
71 | T47N | -0.286 ± 0.3
72 | S22F | -0.945 ± 0.39

Row | Variant | abundance fitness
73 | S22G | -0.5 ± 0.075
74 | S22P | -0.621 ± 0.059
75 | S22Y | -0.911 ± 0.25
76 | I32H | -0.527 ± 0.13
77 | I32W | -0.442 ± 0.14
78 | I32R | -0.592 ± 0.071
79 | I32G | -0.707 ± 0.094
80 | I32L | -0.029 ± 0.055
81 | I32A | -0.686 ± 0.11
82 | E16C | -0.853 ± 0.23
83 | E16K | -0.537 ± 0.14
84 | E16Y | -0.576 ± 0.15
85 | E16V | -0.289 ± 0.067
86 | E16P | -0.539 ± 0.078
87 | E16T | -0.193 ± 0.079
88 | E16Q | -0.546 ± 0.12
89 | V40G | -0.715 ± 0.081
90 | V40S | -0.603 ± 0.079
91 | V40P | -0.732 ± 0.11
92 | V40L | -0.701 ± 0.1
93 | V40D | -0.754 ± 0.23
94 | V40N | -0.466 ± 0.38
95 | C18A | -0.151 ± 0.067
96 | C18G | -0.425 ± 0.062

Row | Variant | abundance fitness
97 | C18Q | -0.316 ± 0.11
98 | C18H | -0.747 ± 0.2
99 | I68K | -0.909 ± 0.22
100 | I68E | -0.152 ± 0.18
101 | I68G | -0.497 ± 0.086
102 | I68F | -0.924 ± 0.21
103 | Q4F | -0.166 ± 0.15
104 | L54M | -0.622 ± 0.17
105 | L54S | -0.649 ± 0.079
106 | L54P | -0.553 ± 0.099
107 | L54V | -0.777 ± 0.097
108 | L54Q | -0.646 ± 0.12
109 | L54R | -0.475 ± 0.048
110 | L54D | -0.452 ± 0.2
111 | L31W | -0.949 ± 0.16
112 | L31Y | -0.601 ± 0.24
113 | L31D | -0.456 ± 0.2
114 | K73Y | -0.039 ± 0.16
115 | K73L | -0.064 ± 0.053
116 | K73F | -0.609 ± 0.49
117 | K73V | -0.191 ± 0.057
118 | K73T | -0.01 ± 0.075
119 | K73S | 0.001 ± 0.061
120 | T57M | 0.108 ± 0.1

Row | Variant | abundance fitness
121 | T57Q | 0.01 ± 0.089
122 | T57H | -0.268 ± 0.091
123 | T57A | 0.045 ± 0.051
124 | T57Y | -0.658 ± 0.17
125 | T57S | 0.128 ± 0.062
126 | T57I | 0.044 ± 0.25
127 | E35M | -0.703 ± 0.11
128 | E35P | -0.304 ± 0.096
129 | E35Q | -0.233 ± 0.1
130 | E35N | -0.521 ± 0.17
131 | E35V | -0.408 ± 0.097
132 | E35W | -0.252 ± 0.12
133 | V11E | -0.376 ± 0.11
134 | V11L | -0.373 ± 0.074
135 | V11G | -0.553 ± 0.063
136 | V11S | -0.575 ± 0.071
137 | V11N | -0.577 ± 0.27
138 | V11R | -0.534 ± 0.081
139 | Q60G | -0.014 ± 0.054
140 | Q60Y | -0.008 ± 0.11
141 | Q60R | -0.057 ± 0.047
142 | Q60V | -0.267 ± 0.056
143 | T42N | -0.115 ± 0.15
144 | T42C | -0.108 ± 0.082

Row | Variant | abundance fitness
145 | T42L | -0.225 ± 0.073
146 | T42H | -0.156 ± 0.088
147 | T42M | 0.012 ± 0.1
148 | T42R | 0.066 ± 0.061
149 | R29G | -0.238 ± 0.062
150 | R29E | -0.152 ± 0.12
151 | R29N | -0.044 ± 0.21
152 | M33N | -0.132 ± 0.36
153 | M33A | 0.199 ± 0.071
154 | M33R | 0.141 ± 0.053
155 | M33C | 0.115 ± 0.097
156 | V67P | -0.562 ± 0.08
157 | V67E | -0.294 ± 0.11
158 | V67T | -0.305 ± 0.086
159 | D36L | -0.791 ± 0.11
160 | D36G | -0.551 ± 0.1
161 | D36N | -0.678 ± 0.37
162 | D36H | -0.194 ± 0.14
163 | L72R | -0.633 ± 0.12
164 | L72S | -0.587 ± 0.072
165 | L72P | -0.54 ± 0.077
166 | L72T | -0.448 ± 0.13
167 | L72A | -0.865 ± 0.14

From the Human Domainome abundance scans (Beltran et al. 2025)
